Molecular target: His-Bub3 (recombinant full-length Bub3) (mouse, UniProt Q9WVA3 1-326)
Test: pull-down

His-Bub3 (recombinant full-length Bub3), sequence (Q9WVA3 whole entry): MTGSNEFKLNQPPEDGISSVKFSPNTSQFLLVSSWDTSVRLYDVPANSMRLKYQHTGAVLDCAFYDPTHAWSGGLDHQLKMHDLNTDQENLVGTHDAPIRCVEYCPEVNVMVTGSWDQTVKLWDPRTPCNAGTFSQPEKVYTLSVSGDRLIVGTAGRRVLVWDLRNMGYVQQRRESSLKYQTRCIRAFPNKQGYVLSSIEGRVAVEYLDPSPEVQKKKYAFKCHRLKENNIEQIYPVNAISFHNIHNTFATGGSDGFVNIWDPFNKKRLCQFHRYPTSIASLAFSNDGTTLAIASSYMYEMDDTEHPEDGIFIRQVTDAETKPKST

B1: GST-Wapl(1-50) (domain or fragment, mouse, UniProt Q65Z40 1-50, looked up)
chain: MTSRFGKTYSRKGGNGSSKFDEVFSNKRTTLSTKWGETTFMAKLGQKRPN
  binding result: binds

Source: PMC7141834 (Science Advances, 2020)
